10 molecules from publication PMC10450164 can be followed below.

Among the targets are TFAP2B DBD-HSH WT (Homo sapiens, UniProt Q92481 219-457); TFAP2A DBD-HSH WT (Homo sapiens, UniProt P05549 203-420); TFAP2B R285Q (Homo sapiens, UniProt Q92481 219-457, R285Q); TFAP2B K276R (Homo sapiens, UniProt Q92481 219-457, K276R); TFAP2B R236C (Homo sapiens, UniProt Q92481 219-457, R236C); TFAP2B V336I (Homo sapiens, UniProt Q92481 219-457, V336I); TFAP2A R217S (Homo sapiens, UniProt P05549 203-420, R217S); TFAP2B R300C (Homo sapiens, UniProt Q92481 219-457, R300C); TFAP2A G262E (Homo sapiens, UniProt P05549 203-420, G262E); TFAP2B L284S (Homo sapiens, UniProt Q92481 219-457, L284S).

Common to all, as to assay: ITC

Chain of TFAP2A DBD-HSH WT (P05549 203-420): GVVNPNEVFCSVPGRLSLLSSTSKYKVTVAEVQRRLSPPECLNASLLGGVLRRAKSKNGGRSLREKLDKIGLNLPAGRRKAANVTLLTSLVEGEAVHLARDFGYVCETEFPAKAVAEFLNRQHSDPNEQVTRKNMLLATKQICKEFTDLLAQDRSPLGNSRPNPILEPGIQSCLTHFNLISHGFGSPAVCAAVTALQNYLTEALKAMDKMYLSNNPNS
Chain of TFAP2B DBD-HSH WT (Q92481 219-457): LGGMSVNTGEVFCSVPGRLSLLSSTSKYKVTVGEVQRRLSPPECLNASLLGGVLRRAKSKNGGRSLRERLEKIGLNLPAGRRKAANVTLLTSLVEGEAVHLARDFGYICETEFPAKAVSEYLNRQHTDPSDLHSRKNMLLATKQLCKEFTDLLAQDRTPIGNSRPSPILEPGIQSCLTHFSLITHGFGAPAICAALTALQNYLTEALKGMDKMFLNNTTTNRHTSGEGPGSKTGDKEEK
Chain of TFAP2B K276R (Q92481 219-457 K276R): as the sequence (Q92481 219-457) above, with K58R counted along it
Chain of TFAP2B R236C (Q92481 219-457 R236C): as the sequence (Q92481 219-457) above, with R18C counted along it
Chain of TFAP2B L284S (Q92481 219-457 L284S): as the sequence (Q92481 219-457) above, with L66S counted along it
Chain of TFAP2A G262E (P05549 203-420 G262E): as the sequence (P05549 203-420) above, with G60E counted along it
Chain of TFAP2B R285Q (Q92481 219-457 R285Q): as the sequence (Q92481 219-457) above, with R67Q counted along it
Chain of TFAP2A R217S (P05549 203-420 R217S): as the sequence (P05549 203-420) above, with R15S counted along it
Chain of TFAP2B R300C (Q92481 219-457 R300C): as the sequence (Q92481 219-457) above, with R82C counted along it
Chain of TFAP2B V336I (Q92481 219-457 V336I): as the sequence (Q92481 219-457) above, with V118I counted along it

B1: GCmC/GGC (dsDNA)
DNA 1: GTGCCCGAGGCAG
DNA 2: CTGCCTCGGGCAC
modifications: methylcytosine at position 5 of strand 1; second strand methylation not stated
In the case of B1, the Kd with TFAP2B DBD-HSH WT was determined as 126 ± 12 nM; with TFAP2A DBD-HSH WT, 107 ± 3 nM.

B2: GCt/GGC (dsDNA)
DNA 1: GTGCTCGAGGCAG
DNA 2: CTGCCTCGAGCAC
Regarding B2, the Kd was 461 ± 71 nM with TFAP2B DBD-HSH WT and 694 ± 71 nM with TFAP2A DBD-HSH WT.

B3: cCC/GGC (dsDNA)
DNA 1: GTCCCCGAGGCAG
DNA 2: CTGCCTCGGGGAC
For the molecule B3, the Kd with TFAP2B DBD-HSH WT is 55 ± 7 nM; with TFAP2A DBD-HSH WT, 78 ± 16 nM.

B4: CGA (GCC(N3)GGC) (dsDNA)
DNA 1: GTGCCCGAGGCAG
DNA 2: CTGCCTCGGGCAC
As to B4, the Kd in the data set with TFAP2B R285Q stood at 178 ± 43 nM; with TFAP2B K276R, 382 ± 36 nM; with TFAP2B DBD-HSH WT it was 18 ± 2 nM; with TFAP2B V336I, 44 ± 9 nM; with TFAP2B R300C, 88 ± 20 nM; with TFAP2A DBD-HSH WT it was 19 ± 1 nM. This molecule also returned a Kd in the data set with TFAP2A G262E of 129 ± 22 nM. Moreover, the binding result in the data set with TFAP2B R236C, with TFAP2A R217S and in the data set with TFAP2B L284S was “no binding” each time.

B5: tCC/GGC (dsDNA)
DNA 1: GTTCCCGAGGCAG
DNA 2: CTGCCTCGGGAAC
Take B5: the figures for the Kd in the data set with TFAP2B DBD-HSH WT and with TFAP2A DBD-HSH WT were 248 ± 49 nM and 565 ± 87 nM, respectively.

B6: aCC/GGC (dsDNA)
DNA 1: GTACCCGAGGCAG
DNA 2: CTGCCTCGGGTAC
Take B6: the Kd with TFAP2B DBD-HSH WT is 313 ± 69 nM; with TFAP2A DBD-HSH WT it was 373 ± 46 nM.

B7: GmCC/GGC (dsDNA)
DNA 1: GTGCCCGAGGCAG
DNA 2: CTGCCTCGGGCAC
modifications: methylcytosine at position 4 of strand 1; second strand methylation not stated
Turning to B7, the Kd in the data set with TFAP2B DBD-HSH WT was 299 ± 22 nM; with TFAP2A DBD-HSH WT, 347 ± 3 nM.

B8: N4 (4 bp spacer) (dsDNA)
DNA 1: GTGCCCGATGGCAG
DNA 2: CTGCCATCGGGCAC
For the molecule B8, the results for the dissociation constant (Kd) with TFAP2B DBD-HSH WT and with TFAP2A DBD-HSH WT were 340 ± 17 nM and 341 ± 20 nM, respectively.

B9: TGA (dsDNA)
DNA 1: GTGCCTGAGGCAG
DNA 2: CTGCCTCAGGCAC
In the case of B9, the dissociation constant (Kd) was found to be 19 ± 2 nM with TFAP2B DBD-HSH WT and 17 ± 1 nM with TFAP2A DBD-HSH WT.

B10: cCC/GGg (dsDNA)
DNA 1: GTCCCCGAGGGAG
DNA 2: CTCCCTCGGGGAC
In the case of B10, the Kd is 355 ± 57 nM with TFAP2B DBD-HSH WT and 336 ± 53 nM in the data set with TFAP2A DBD-HSH WT.
